One test deals with SUMO1 (UniProt P63165). Kind of test: NMR titration.
Test [1] addresses SUMO2 (UniProt P61956). Kind of test: NMR titration.
In test [2] the target is SUMO2 (UniProt P61956).
In test [3] the target is Chk2-FHA domain (aa:64-212) (UniProt O96017 64-212). The test can be described thus: ITC. Background: Isothermal titration calorimetry measures the heat released or taken up as one component is titrated into another.

Non-standard residues stand in square brackets, D forms with d. No end group written: not given here. pT = C[C@@H](OP(=O)(O)O)[C@H](N)C(=O)O

Sequence of SUMO1 (P63165 1-97): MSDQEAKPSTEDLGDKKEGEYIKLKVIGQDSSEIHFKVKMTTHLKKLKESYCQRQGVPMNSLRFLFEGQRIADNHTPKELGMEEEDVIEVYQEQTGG
Sequence of Chk2-FHA domain (aa:64-212) (O96017 64-212): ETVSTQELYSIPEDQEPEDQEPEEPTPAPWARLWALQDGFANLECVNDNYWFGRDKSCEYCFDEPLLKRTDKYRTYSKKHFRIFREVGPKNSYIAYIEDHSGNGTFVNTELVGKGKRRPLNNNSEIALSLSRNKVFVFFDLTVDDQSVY

As a reminder, the Kd is the constant that tells how readily two partners part at equilibrium. Higher therefore signals a looser complex. For the molecule “ppSLS4 peptide of ICP0 (SLS4 phosphorylated at Ser365 and Ser367)”, the Kd was 5 µM in the test with SUMO1 and 3 µM with SUMO2 [1].

In the case of “pSLS4 peptide of ICP0 (SLS4 phosphorylated at Ser365)”, the Kd is 16 µM with SUMO1 and 7 µM in the test with SUMO2 [1].

As for SLS4 peptide of ICP0, the Kd stood at 128 µM in the test with SUMO1 and 81 µM in the test with SUMO2 [1].

“ICP0pm (phosphomimetic full-length ICP0, Ser365 and Ser367 mutated to aspartic acids) (from UniProt P08393 1-775) (enzyme)” registered an STUbL activity on SUMOylated FLAG-PMLs, against ICP0 (fold (against ICP0)) with SUMO2 [2] of 5.

What is called stoichiometry N is the number of molecules, sites or subunits per partner or assembly. As for DDDSASEADSTD[pT]ELFETGL [ICP0-FBM peptide, phosphorylated at Thr67 (FHA Binding Motif, aa: 55-74)], in test [3], the Kd is 0.75 ± 0.05 µM, the dH is -5.8 ± 0.1 kcal/mol and the “stoichiometry N” value came to 1.23.

Values taken from paper doi:10.1101/709485 (bioRxiv, 2019).
